Laboratory results as given in patent US7025971 (WASHINGTON UNIVERSITY, dated 2006).
Where no end group is shown, it is not given here.

B5: PapD (wild type) (other)
chain: AVSLDRTRAVFDGSEKSMTLDISNDNKQLPYLAQAWIENENQEKIITGPVIATPPVQRLEPGAKSMVRLSTTPDISKLPQDRESLFYFNLREIPPRSEKANVLQIALQTKIKLFYRPAAIKTRPNEVWQDQLILNKVSGGYRIENPTPYYVTVIGLGGSEKQAEEGEFETVMLSPRSEQTVKSANYNTPYLSYINDYGGRPVLSFICNGSRCSVKKEK
notes: also called WT PapD; native PapD

Columns and labels:
PapD (wild type) [1] = target: B5; assay: soluble inhibition ELISA on G1′-19′WT-coated wells
PapD (wild type) [2] = target: B5; assay: soluble inhibition ELISA: 25-fold molar excess of peptide, 100 pmol/well PapD, G1′-19′WT-coated wells
PapD (wild type) [3] = target: B5; assay: inhibition ELISA: PapD preincubated with peptide, MBP-G1′-140′-coated wells
[4] = target: T1, modified PapG peptide, Ser-9′ substituted by Cys, labelled with 5-IAF (E. coli); assay: fluorescence intensity at 514 nm of the 5-IAF-labelled PapG peptide against increasing PapD concentration
T1 construct: also called labelled peptide; fluorescence labelled PapG analogue

[5] = target: T2, maltose binding protein (MBP) (UniProt P0AEX9 27-392 = MBP); assay: co-expression, amylose affinity chromatography
T2 construct: also called MBP control

PapD (wild type) [6] = target: B5; assay: ELISA, peptide coated on wells, PapD in solution, anti-PapD antiserum
PapD (wild type) [7] = target: B5; assay: ELISA, peptide coated on wells, 200 pmol PapD, anti-PapD antiserum
PapD (wild type) [8] = target: B5; assay: ELISA, peptide coated on wells, anti-PapD antiserum
PapD (wild type) [9] = target: B5; assay: ELISA, peptide coated on wells, PapD in solution
PapD (wild type) [10] = target: B5; assay: ELISA, peptide coated on wells (2.5 pmol/50 µl), PapD in solution
PapD Lys-112-Ala = target: T3, PapD Lys-112-Ala (E. coli, UniProt P15319 22-239); assay: native polyacrylamide gel mobility shift
T3 sequence: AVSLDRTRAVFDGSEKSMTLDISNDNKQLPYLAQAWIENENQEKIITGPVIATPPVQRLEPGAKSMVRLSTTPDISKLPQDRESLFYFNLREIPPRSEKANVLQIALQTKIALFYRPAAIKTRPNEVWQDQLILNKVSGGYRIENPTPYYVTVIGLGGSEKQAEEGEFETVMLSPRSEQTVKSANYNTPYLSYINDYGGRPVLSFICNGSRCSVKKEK

PapD Arg-8-Ala = target: T4, PapD Arg-8-Ala (E. coli, UniProt P15319 22-239); assay: native polyacrylamide gel mobility shift
T4 construct: also called R8A; pR8A
T4 sequence: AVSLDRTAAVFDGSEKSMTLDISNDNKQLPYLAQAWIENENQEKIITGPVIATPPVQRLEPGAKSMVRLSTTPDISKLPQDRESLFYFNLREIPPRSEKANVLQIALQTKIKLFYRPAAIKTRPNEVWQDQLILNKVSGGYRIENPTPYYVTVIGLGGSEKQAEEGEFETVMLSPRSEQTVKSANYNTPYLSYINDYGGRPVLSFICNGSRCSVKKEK

PapD Arg-8-Gly = target: T5, PapD Arg-8-Gly (E. coli, UniProt P15319 22-239); assay: native polyacrylamide gel mobility shift
T5 construct: also called R8G; pR8G
T5 sequence: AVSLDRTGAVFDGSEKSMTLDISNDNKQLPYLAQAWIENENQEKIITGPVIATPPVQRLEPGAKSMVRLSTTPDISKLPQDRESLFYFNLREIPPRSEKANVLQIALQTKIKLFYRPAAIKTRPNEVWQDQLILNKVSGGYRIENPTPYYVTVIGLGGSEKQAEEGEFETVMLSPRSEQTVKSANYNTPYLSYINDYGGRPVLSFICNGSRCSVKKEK

B1: G1′-19′SV (peptide)
peptide: GKRKPVELSGSMTMVLSSP
notes: Variant of G1′-19′WT with Phe-2′ to Ser and Gly-14′ to Val
B1: binds (PapD (wild type) [1]).

B2: G1′-7′WT (peptide)
peptide: TMVLSFP
For B2, the “% Inhibition” value (PapD (wild type) [2]) was 49%.

B3: G1′-19′amide (peptide)
peptide: GKRKPGELSGSMTMVLSFP-NH2
notes: also called G1′-19′NH2
B3 was tested, and the “% Inhibition” value (PapD (wild type) [2]) was 56%.

B4: G1′-8′WT (peptide)
peptide: MTMVLSFP
notes: also called PapG 8-mer peptide; octameric peptide
B4: binds (PapD (wild type) [3]).

B5 was tested, and the Kd [4] was 2500 nM and the binding result [5] was “no binding”.

B6: E1′-19′WT (peptide)
peptide: QNLIAGPFSATATLVASYS
notes: Water insoluble peptide; also called PapE peptide
B6: binds (PapD (wild type) [6]).

B7: K1′-19′WT (peptide)
peptide: KSVVPGDYEATATFELTYR
notes: also called PapK peptide; K-peptide
B7: binds (PapD (wild type) [6]).

B8: G125′-140′ (peptide)
peptide: DQIKQLPATNTLMLSF
notes: also called site 2 peptide
B8: binds (PapD (wild type) [7]).

B9: SEQ ID NO 19 (peptide)
peptide: LPATNTLMLSFDNVGG
notes: also called one of the other three second-site peptides of PapG (region 120′ to 156′)
B9: no binding (tested: 200 pmol/50 ml of PapD) (PapD (wild type) [8]).

B10: F1′-19′WT (peptide)
peptide: GILNGGDFQTTASMAMIYN
notes: also called PapF peptide
B10: binds (PapD (wild type) [6]).

B11: G1′-16′WT (peptide)
peptide: KPGELSGSMTMVLSFP
B11: binds (PapD (wild type) [9]).

B12: SEQ ID NO 21 (peptide)
peptide: YKMPYDQIKQLPATNT
notes: as for B9
B12: no binding (tested: 200 pmol/50 ml of PapD) (PapD (wild type) [8]).

B13: H1′-19′WT (peptide)
peptide: KKLEAGNYFAVLGFRVDYE
notes: also called PapH peptide
B13: no binding (PapD (wild type) [10]).

B14: SEQ ID NO 22 (peptide)
peptide: QHHYYDLWQDHYKMPY
notes: as for B9
B14: no binding (tested: 200 pmol/50 ml of PapD) (PapD (wild type) [8]).

B15: G1′-11′WT (peptide)
peptide: SGSMTMVLSFP
notes: Water insoluble peptide
B15: binds (PapD (wild type) [9]).

B16: G1′-19′WT (peptide)
peptide: GKRKPGELSGSMTMVLSFP
notes: Synthetic peptide; residues numbered from the C-terminus (Pro-1′); also called PapG 19-mer peptide; G-peptide
For B16, the “% Inhibition” value (PapD (wild type) [2]) was 63%, the binding result (PapD Lys-112-Ala) was “no binding” and the binding result (PapD Arg-8-Ala) was “no binding”. B16: no binding (PapD Arg-8-Gly).

B17: G1′-6′ (peptide)
peptide: MVLSFP
B17: binds (PapD (wild type) [3]).
